# According to patent US20220119534A1 (DRAGONFLY THERAPEUTICS, published 2022):
# Several values for one entry are separate records, joined by “and”; a condition that tells them apart may be missing. Identical values can stand only once.
# T1: Human CLEC12A-His (recombinant, K244 WT) (human, UniProt Q5QGZ9 65-265)
# T1 construct: Made in house (Dragonfly Tx); also called hCLEC12A; hCLEC12A-His; not shown: His tag
# T1 sequence: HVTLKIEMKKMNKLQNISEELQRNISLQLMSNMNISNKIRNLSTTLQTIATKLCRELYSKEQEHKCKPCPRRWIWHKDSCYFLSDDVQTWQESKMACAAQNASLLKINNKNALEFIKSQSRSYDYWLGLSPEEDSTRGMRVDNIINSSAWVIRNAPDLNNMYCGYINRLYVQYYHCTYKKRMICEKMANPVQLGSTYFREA
# T2: Human CLEC12A-K244Q-His (human, UniProt Q5QGZ9 65-265)
# T2 construct: also called hCLEC12A (Q244); CLEC12A (Q244); not shown: His tag
# T2 chain: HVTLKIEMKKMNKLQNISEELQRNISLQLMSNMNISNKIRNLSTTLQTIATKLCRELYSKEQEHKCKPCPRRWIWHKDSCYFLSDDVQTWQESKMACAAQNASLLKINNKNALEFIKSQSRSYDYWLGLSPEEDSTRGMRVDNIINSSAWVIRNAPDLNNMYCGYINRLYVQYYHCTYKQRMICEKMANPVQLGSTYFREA
# T3: mFc-hNKG2D (recombinant mFc-tagged human NKG2D dimer) (human, UniProt P26718 73-216)
# T3 construct: extracellular domain; Made in house; not shown: mouse Fc tag
# T3 sequence (looked up): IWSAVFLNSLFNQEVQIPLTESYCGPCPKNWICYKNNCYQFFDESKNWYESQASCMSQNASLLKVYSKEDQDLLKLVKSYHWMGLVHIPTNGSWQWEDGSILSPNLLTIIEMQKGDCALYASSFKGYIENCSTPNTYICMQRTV
# T4: human CLEC12A on cells (HL60, PL21, Ba/F3-hCLEC12A) (human, UniProt Q5QGZ9 1-265)
# T4 construct: Endogenous on the AML lines HL60 and PL21; brought into mouse Ba/F3 cells by retroviral transduction; The cell line stands under assay; also called CLL-1
# T4 sequence: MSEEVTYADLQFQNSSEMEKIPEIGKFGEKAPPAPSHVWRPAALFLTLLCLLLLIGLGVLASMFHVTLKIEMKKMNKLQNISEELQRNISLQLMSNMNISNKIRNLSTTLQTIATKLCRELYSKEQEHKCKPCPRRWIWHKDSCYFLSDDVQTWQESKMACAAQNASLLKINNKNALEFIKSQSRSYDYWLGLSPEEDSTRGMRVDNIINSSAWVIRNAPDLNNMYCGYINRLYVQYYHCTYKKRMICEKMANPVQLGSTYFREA
# T5: Human CLEC12A-His (human, UniProt Q5QGZ9 65-265)
# T5 construct: Recombinant soluble protein made in house; also called hCLEC12A-His; hCLEC12A; not shown: His tag
# T5 sequence: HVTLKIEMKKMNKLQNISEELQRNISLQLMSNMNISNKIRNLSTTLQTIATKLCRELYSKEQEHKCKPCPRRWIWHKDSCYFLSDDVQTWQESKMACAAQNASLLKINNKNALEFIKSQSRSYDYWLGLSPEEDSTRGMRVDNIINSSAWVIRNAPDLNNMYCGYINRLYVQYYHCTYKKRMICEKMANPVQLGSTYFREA
# T6: mFc-hNKG2D (human, UniProt P26718 73-216)
# T6 construct: extracellular domain; Recombinant mFc-tagged NKG2D dimer, made in house; also called human NKG2D; not shown: mouse Fc tag
# T6 sequence (looked up): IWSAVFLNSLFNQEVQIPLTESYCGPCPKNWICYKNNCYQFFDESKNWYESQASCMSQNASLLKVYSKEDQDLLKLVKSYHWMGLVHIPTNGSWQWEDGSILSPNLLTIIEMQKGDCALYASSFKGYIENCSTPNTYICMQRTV
# B1: AB0089 TriNKET (bispecific antibody, human IgG1, kappa)
# chain: QLQLQESGPGLVKPSETLSLTCTVSGFSLTNYGLHWIRQPPGKCLEWIGVIWVGGATDYNPSLKSRVTISVDTSKNQFSLKLSSVQAADTAVYYCAKGDYGDTLDYWGQGTLVTVSSGGGGSGGGGSGGGGSGGGGSDIQMTQSPSSLSASVGDRVTITCHASQNINFWLSWYQQKPGKAPKLLIYEASNLHTGVPSRFSGSGSGTDFTLTISSLQPEDFATYYCQQSHSYPLTFGCGTKLEIKGSDKTHTCPPCPAPELLGGPSVFLFPPKPKDTLMISRTPEVTCVVVDVSHEDPEVKFNWYVDGVEVHNAKTKPREEQYNSTYRVVSVLTVLHQDWLNGKEYKCKVSNKALPAPIEKTISKAKGQPREPRVYTLPPCRDELTKNQVSLTCLVKGFYPSDIAVEWESNGQPENNYKTTPPVLVSDGSFTLYSKLTVDKSRWQQGNVFSCSVMHEALHNHYTQKSLSLSPG
# heavy: EVQLVESGGGLVKPGGSLRLSCAASGFTFSSYSMNWVRQAPGKGLEWVSSISSSSSYIYYADSVKGRFTISRDNAKNSLYLQMNSLRAEDTAVYYCARGAPIGAAAGWFDPWGQGTLVTVSSASTKGPSVFPLAPSSKSTSGGTAALGCLVKDYFPEPVTVSWNSGALTSGVHTFPAVLQSSGLYSLSSVVTVPSSSLGTQTYICNVNHKPSNTKVDKKVEPKSCDKTHTCPPCPAPELLGGPSVFLFPPKPKDTLMISRTPEVTCVVVDVSHEDPEVKFNWYVDGVEVHNAKTKPREEQYNSTYRVVSVLTVLHQDWLNGKEYKCKVSNKALPAPIEKTISKAKGQPREPQVCTLPPSRDELTENQVSLTCLVKGFYPSDIAVEWESNGQPENNYKTTPPVLDSDGSFFLYSWLTVDKSRWQQGNVFSCSVMHEALHNHYTQKSLSLSPG
# light: DIQMTQSPSSVSASVGDRVTITCRASQGISSWLAWYQQKPGKAPKLLIYAASSLQSGVPSRFSGSGSGTDFTLTISSLQPEDFATYYCQQGVSFPRTFGGGTKVEIKRTVAAPSVFIFPPSDEQLKSGTASVVCLLNNFYPREAKVQWKVDNALQSGNSQESVTEQDSKDSTYSLSSTLTLSKADYEKHKVYACEVTHQGLSSPVTKSFNRGEC
# notes: F3' format heterodimer of three chains; human IgG1 Fc with EW-RVT and Y349C/S354C mutations; also called AB0089 Lot AB0089-002; CLEC12A TriNKET AB0089
# B2: AB0192 TriNKET (other)
# chain: EVQLVESGGGVVQPGGSLRLSCAASGFTFNAFGMHWVRQAPGKCLEWVAFISSGSTSIYYANTVKGRFTISRDNSKNTLYLQMNSLRAEDTAVYYCARDGYPTGGAMDYWGQGTSVTVSSGGGGSGGGGSGGGGSGGGGSDIQMTQSPSSLSASVGDRVTITCKASQDIYNYLSWFQQKPGKAPKPLIYRANILVSGVPSRFSGSGSGQDYTFTISSLQPEDIATYYCLQFDAFPFTFGCGTKLEIKGSDKTHTCPPCPAPELLGGPSVFLFPPKPKDTLMISRTPEVTCVVVDVSHEDPEVKFNWYVDGVEVHNAKTKPREEQYNSTYRVVSVLTVLHQDWLNGKEYKCKVSNKALPAPIEKTISKAKGQPREPRVYTLPPCRDELTKNQVSLTCLVKGFYPSDIAVEWESNGQPENNYKTTPPVLVSDGSFTLYSKLTVDKSRWQQGNVFSCSVMHEALHNHYTQKSLSLSPG
# heavy: EVQLVESGGGLVKPGGSLRLSCAASGFTFSSYSMNWVRQAPGKGLEWVSSISSSSSYIYYADSVKGRFTISRDNAKNSLYLQMNSLRAEDTAVYYCARGAPIGAAAGWFDPWGQGTLVTVSSASTKGPSVFPLAPSSKSTSGGTAALGCLVKDYFPEPVTVSWNSGALTSGVHTFPAVLQSSGLYSLSSVVTVPSSSLGTQTYICNVNHKPSNTKVDKKVEPKSCDKTHTCPPCPAPELLGGPSVFLFPPKPKDTLMISRTPEVTCVVVDVSHEDPEVKFNWYVDGVEVHNAKTKPREEQYNSTYRVVSVLTVLHQDWLNGKEYKCKVSNKALPAPIEKTISKAKGQPREPQVCTLPPSRDELTENQVSLTCLVKGFYPSDIAVEWESNGQPENNYKTTPPVLDSDGSFFLYSWLTVDKSRWQQGNVFSCSVMHEALHNHYTQKSLSLSPG
# light: DIQMTQSPSSVSASVGDRVTITCRASQGISSWLAWYQQKPGKAPKLLIYAASSLQSGVPSRFSGSGSGTDFTLTISSLQPEDFATYYCQQGVSFPRTFGGGTKVEIKRTVAAPSVFIFPPSDEQLKSGTASVVCLLNNFYPREAKVQWKVDNALQSGNSQESVTEQDSKDSTYSLSSTLTLSKADYEKHKVYACEVTHQGLSSPVTKSFNRGEC
# notes: the condition stands under assay; also called AB0192 Lot AB0192-005
# Key:
# [1] = target: T1, Human CLEC12A-His (recombinant, K244 WT); experiment: SPR, two-state fit (ka1)
# Description: (§1) Briefly, human Fc specific antibodies were covalently immobilized at a density ˜8000-10000 resonance units (RU) on carboxy methyl dextran matrix of a CM5 biosensor chip via amine-coupling chemistry to create an anti-hFc IgG chip. […] Association was monitored for 300 seconds and dissociation was monitored for 600 seconds. Surfaces were regenerated between cycles with three pulses of 10 mM glycine-HCl, pH 1.7 injected for 20 seconds at 100 μl/min. HBS-EP+ (1×) with 0.1 mg/ml BSA was used as running buffer throughout the experiment. Experiments were performed at physiological temperature of 37° C. To obtain kinetic rate constants and overall binding affinity, double-referenced data were fit to a two-state kinetic model using Biacore 8K Insight Evaluation software (Cytiva).
# [2] = target: T2, Human CLEC12A-K244Q-His; experiment: SPR, two-state fit (ka1)
# Description: as §1
# [3] = target: T1, Human CLEC12A-His (recombinant, K244 WT); experiment: SPR, two-state fit (kd1)
# Description: as §1
# [4] = target: T2, Human CLEC12A-K244Q-His; experiment: SPR, two-state fit (kd1)
# Description: as §1
# [5] = target: T1, Human CLEC12A-His (recombinant, K244 WT); experiment: SPR, two-state fit (kd1); control sample
# Description: as §1
# [6] = target: T1, Human CLEC12A-His (recombinant, K244 WT); experiment: SPR, two-state fit (kd1); control sample; remark: listed apart in the source
# Description: as §1
# [7] = target: T3, mFc-hNKG2D (recombinant mFc-tagged …); experiment: SPR 37C, mFc-hNKG2D captured, steady state fit
# Description: Briefly, mFc specific antibodies were covalently immobilized at a density of ˜8000-10000 RU on carboxy methyl dextran matrix of a CM5 biosensor chip via amine coupling chemistry to create an anti-mFc IgG chip. mFc-tagged human NKG2D was captured on the anti-mFc IgG chip at a concentration of 0.2 μg/mL at a flow rate 10 μL/min for 60 seconds to achieve approximately 30 RU capture level. […] Association was monitored for 60 seconds and dissociation was monitored for 60 seconds. Surfaces were regenerated between cycles with three pulses of 10 mM glycine-HCl, pH 1.7 injected for 20 seconds at 100 μl/min. HBS-EP+ (1×) was used as running buffer throughout the experiment. Experiments were performed at physiological temperature of 37° C. Double-referenced data were fit to a 1:1 kinetic and a Steady State interaction models using Biacore 8K Insight Evaluation software (GE Healthcare) with global fit analysis in the 1:1 kinetic fit model. Since the samples had been buffer exchanged into the running buffer prior to each experiment, offset for a steady state fit was set to constant (0). The goodness of the fit was expressed by the evaluation software as Chi² that was considered in the context of Rₘₐₓ value.
# [8] = target: T1, Human CLEC12A-His (recombinant, K244 WT); experiment: SPR, two-state fit (kd1); fully purified protein after low pH hold
# Description: as §1
# [9] = target: T4, human CLEC12A on cells (HL60, PL21, …); experiment: flow cytometry, HL-60 cells
# [10] = target: T5, Human CLEC12A-His; experiment: SPR; control sample (pH 5 stress study)
# [11] = target: T6, mFc-hNKG2D; experiment: SPR; control sample (pH 5 stress study)
# [12] = target: T7, Human CD16a V158 (human, UniProt P08637 17-208, biotinylated); experiment: SPR; control sample (pH 5 stress study)
# T7 construct: Bought recombinant receptor; also called hCD16a (V158); hFcγRIIIa V158
# T7 sequence (P08637 17-208 F176V limits assumed): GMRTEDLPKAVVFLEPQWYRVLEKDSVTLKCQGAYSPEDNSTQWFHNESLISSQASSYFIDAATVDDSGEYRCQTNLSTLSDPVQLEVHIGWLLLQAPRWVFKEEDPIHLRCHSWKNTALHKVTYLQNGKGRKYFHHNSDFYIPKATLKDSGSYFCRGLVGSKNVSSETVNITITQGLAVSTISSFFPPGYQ
# [13] = target: T8, Human CD16b (human, UniProt O75015 17-200, limits assumed, biotinylated); experiment: SPR, steady state fit; average for AB0192
# T8 construct: Bought recombinant receptor; also called hFcγRIIIb
# T8 sequence (O75015 17-200 limits assumed): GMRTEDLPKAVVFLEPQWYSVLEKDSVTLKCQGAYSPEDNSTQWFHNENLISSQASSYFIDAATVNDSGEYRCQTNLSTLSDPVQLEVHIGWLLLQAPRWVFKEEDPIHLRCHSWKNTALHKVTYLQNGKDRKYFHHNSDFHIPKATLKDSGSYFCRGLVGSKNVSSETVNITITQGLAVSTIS
binder,measurement,setting,value
B1,kon,[1],1.63e+07 M⁻¹ s⁻¹
same,kon,[2],9.7e+06 M⁻¹ s⁻¹
same,koff,[3],0.0398 s⁻¹
same,koff,[4],0.00353 s⁻¹
same,koff,[5],0.0476 s⁻¹
same,koff,[6],0.0435 s⁻¹
same,Kd,[7],873 nM and 894 nM and 885 nM
same,koff,[8],0.0276 s⁻¹
B2,EC50,[9],0.6 nM
same,Kd,[10],1.68 nM
same,koff,[10],0.00129 s⁻¹
same,kon,[10],771000 M⁻¹ s⁻¹
same,Kd,[11],588 nM
same,koff,[11],0.122 s⁻¹
same,kon,[11],208000 M⁻¹ s⁻¹
same,Kd,[12],171 nM
same,koff,[12],0.0199 s⁻¹
same,kon,[12],117000 M⁻¹ s⁻¹
same,Kd,[13],6000 nM
